# Results taken from publication PMC3143649 (The Journal of Biological Chemistry, 2011).
# Several values for one entry are separate records, joined by “and”; a condition that tells them apart may be missing. Equal values may be shown once. Read-outs that look alike come from different tables or passages of the source.
# Legend:
# [1] = biological target: the molecule itself
# native MS = biological target: the molecule itself; experiment: native MS
# atomic force microscopy = biological target: the molecule itself; experiment: atomic force microscopy
# [2] = biological target: Cys-less MtrE C21S (Neisseria gonorrhoeae) (UniProt Q51006); experiment: cross-linking
# cross-linking = biological target: the molecule itself; experiment: cross-linking
# [3] = biological target: the molecule itself; experiment: negative-stain electron microscopy
binder,measurement,setting,value
"MtrD (natural protein, Neisseria gonorrhoeae, UniProt Q51073 1-1067, looked up) MAKFFIDRPIFAWVISIFIIAAGIFGIKSLPVSQYPSVAAPTITLHAIYPGASAQVMEGSVLSVIERNMNGVEGLDYMSTSADSSGSGSVSLTFTPDTDENLAQVEVQNKLSEVLRTLPATVQQYGVTVSKARSNFLMIVMLSSDVQSTEEMNDYAQRNVVPELQRIEGVGQVRLFGAQRAMRIWVDPKKLQNYNLSFADVGSALSAQNIQISAGSIGSLPAVRGQTVTATVTAQGQLGTAEEFGNVILRANTDGSNIYLKDVAKVGLGMEDYSSSTRLNGVNTTGMAVMLSNSGNAMATAKAVKERLAVLEKYFPQGMSWKTPYDTSKFVEISIEKVIHTLIEAMVLVFVVMYLFLQNIRYTLIPTIVVPISLLGGFAFISYMGMSINVLTMFAMILVIGIVVDDAIVVVENVERIMAGEGLPPKEATKKAMGQISGAVIGITAVLISVFVPLAMFSGAAGNIYKQFALTMASSIAFSAFLALTLTPALCATMLKTIPKGHHEEKKGFFGWFNKKFDSWTHGYEGRVAKVLRKTFRMMVVYIGLAVVGVFLFMRLPTSFLPTEDQGFVMVSVQLPAGATKERTDATLAQVTQLAKSIPEIENIITVSGFSFSGSGQNMAMGFAIFKDWNERTASGSDAVAVAGKLTGMMMGTLKDGFGIAVVPPPILELGNGSGLSINLQDRNNTGHTGIAGEGNELIQKMRASGLFDPSTVRAGGLEDSPQLKIDINRAAAAAQGISFADIRTALASALSSSYVSDFPNQGRLQRVMVQADEDARMQPADILNLTVPNKSGVAVPLSTIATVSWENGTEQSVRFNGYPSMKLSASPATGVSTGQAMEAVQKMVDELGGGYSFEWGGQSSEEAKGGSQTLILYGLAVAAVFLVLAALYESWSIPLAVILVIPLGLIGAAAGVTGRNLFEGLLGSVPSFANDIYFQVGFVTVMGLSAKNAILIIEFAKDLQAQGKSAVEAALEAARLRFRPIIMTSFAFILGVVPLYIAAGASSASQRAIGTTVFWGMLVGTLLSVFLVPLFYVVVRKFFKETAHEHEMAVRHASKAGITGSDDKQY",stoichiometry N,[1],3
"MtrC α-helical coiled-coil hairpin domain (domain or fragment, Neisseria gonorrhoeae, UniProt P43505 103-183, looked up) IDSSTYEAGLESARAQLATAQATLAKADADLARYKPLVSADAISKQEYDAAVTAKRSAEASVKAAQAAIKSAGINLNRSRI",stoichiometry N,native MS,2
same,stoichiometry N,atomic force microscopy,6
"MtrE, wild type (natural protein, Neisseria gonorrhoeae, UniProt Q51006 1-467, looked up) CTMIPQYEQPKVEVAETFQNDTSVSSIRAVDLGWHDYFADPRLQKLIDIALERNTSLRTAVLNSEIYRKQYMIERNNLLPTLAANANGSRQGSLSGGNVSSSYNVGLGAASYELDLFGRVRSSSEAALQGYFASVANRDAAHLSLIATVAKAYFNERYAEEAMSLAQRVLKTREETYNAVRIAVQGRRDFRRRPAPAEALIESAKADYAHAARSREQARNALATLINRPIPEDLPAGLPLDKQFFVEKLPAGLSSEVLLDRPDIRAAEHALKQANANIGAARAAFFPSIRLTGSVGTGSVELGGLFKSGTGVWAFAPSITLPIFTWGTNKANLDVAKLRQQAQIVAYESAVQSAFQDVANALAAREQLDKAYDALSKQSRASKEALRLVGLRYKHGVSGALDLLDAERSSYSAEGAALSAQLTRAENLADLYKALGGGLKRDTQTGK",stoichiometry N,[1],3
"NT-MtrC D143C (domain or fragment, Neisseria gonorrhoeae, UniProt P43505 35-412, looked up) GQPAGREAPAPVVGVVTVHPQTVALTVELPGRLESLRTADVRAQVGGIIQKRLFQEGSYVRAGQPLYQIDSSTYEAGLESARAQLATAQATLAKADADLARYKPLVSACAISKQEYDAAVTAKRSAEASVKAAQAAIKSAGINLNRSRITAPISGFIGQSKVSEGTLLNAGDTTVLATIRQTNPMYVNVTQSASEVMKLRRQIAEGKLLAADGAIAVGIKFDDGTVYPEKGRLLFADPTVDESTGQITLRAAVSNDQNILMPGLYVRVLMDQVAADNAFIVPQQAVTRGAKDTVMIVNAQGGMEPREVTVAQQQGTNWIVTSGLKDGDKVVVEGISIAGMTGAKKVTPKEWAPSENQAAAPQAGVQTASEAKPASEAK",stoichiometry N (MtrC per MtrE),[2],2
same,stoichiometry N,cross-linking,2
"NT-MtrC, the N-terminal truncated (Δ1–34) MtrC (domain or fragment, Neisseria gonorrhoeae, UniProt P43505 35-412, looked up) GQPAGREAPAPVVGVVTVHPQTVALTVELPGRLESLRTADVRAQVGGIIQKRLFQEGSYVRAGQPLYQIDSSTYEAGLESARAQLATAQATLAKADADLARYKPLVSADAISKQEYDAAVTAKRSAEASVKAAQAAIKSAGINLNRSRITAPISGFIGQSKVSEGTLLNAGDTTVLATIRQTNPMYVNVTQSASEVMKLRRQIAEGKLLAADGAIAVGIKFDDGTVYPEKGRLLFADPTVDESTGQITLRAAVSNDQNILMPGLYVRVLMDQVAADNAFIVPQQAVTRGAKDTVMIVNAQGGMEPREVTVAQQQGTNWIVTSGLKDGDKVVVEGISIAGMTGAKKVTPKEWAPSENQAAAPQAGVQTASEAKPASEAK",stoichiometry N,native MS,6 and 5
"NT-MtrC E149C (domain or fragment, Neisseria gonorrhoeae, UniProt P43505 35-412, looked up) GQPAGREAPAPVVGVVTVHPQTVALTVELPGRLESLRTADVRAQVGGIIQKRLFQEGSYVRAGQPLYQIDSSTYEAGLESARAQLATAQATLAKADADLARYKPLVSADAISKQCYDAAVTAKRSAEASVKAAQAAIKSAGINLNRSRITAPISGFIGQSKVSEGTLLNAGDTTVLATIRQTNPMYVNVTQSASEVMKLRRQIAEGKLLAADGAIAVGIKFDDGTVYPEKGRLLFADPTVDESTGQITLRAAVSNDQNILMPGLYVRVLMDQVAADNAFIVPQQAVTRGAKDTVMIVNAQGGMEPREVTVAQQQGTNWIVTSGLKDGDKVVVEGISIAGMTGAKKVTPKEWAPSENQAAAPQAGVQTASEAKPASEAK",stoichiometry N (MtrC per MtrE),[2],2
same,stoichiometry N,cross-linking,2
"MacA (natural protein, E. coli, UniProt P75830 1-371, looked up) MKKRKTVKKRYVIALVIVIAGLITLWRILNAPVPTYQTLIVRPGDLQQSVLATGKLDALRKVDVGAQVSGQLKTLSVAIGDKVKKDQLLGVIDPEQAENQIKEVEATLMELRAQRQQAEAELKLARVTYSRQQRLAQTKAVSQQDLDTAATEMAVKQAQIGTIDAQIKRNQASLDTAKTNLDYTRIVAPMAGEVTQITTLQGQTVIAAQQAPNILTLADMSAMLVKAQVSEADVIHLKPGQKAWFTVLGDPLTRYEGQIKDVLPTPEKVNDAIFYYARFEVPNPNGLLRLDMTAQVHIQLTDVKNVLTIPLSALGDPVGDNRYKVKLLRNGETREREVTIGARNDTDVEIVKGLEAGDEVVIGEAKPGAAQ",stoichiometry N,[3],6
